What was measured:
[1] = target: T1, natural human type I interferon receptor (IFN-R) on the surface of human cells (human) (UniProt P17181); assay: inhibition of binding of 125I-IFN alpha 2 (100 pM) to HL60 cells, 4 C; competitor: labelled IFN alpha 2
T1 sequence: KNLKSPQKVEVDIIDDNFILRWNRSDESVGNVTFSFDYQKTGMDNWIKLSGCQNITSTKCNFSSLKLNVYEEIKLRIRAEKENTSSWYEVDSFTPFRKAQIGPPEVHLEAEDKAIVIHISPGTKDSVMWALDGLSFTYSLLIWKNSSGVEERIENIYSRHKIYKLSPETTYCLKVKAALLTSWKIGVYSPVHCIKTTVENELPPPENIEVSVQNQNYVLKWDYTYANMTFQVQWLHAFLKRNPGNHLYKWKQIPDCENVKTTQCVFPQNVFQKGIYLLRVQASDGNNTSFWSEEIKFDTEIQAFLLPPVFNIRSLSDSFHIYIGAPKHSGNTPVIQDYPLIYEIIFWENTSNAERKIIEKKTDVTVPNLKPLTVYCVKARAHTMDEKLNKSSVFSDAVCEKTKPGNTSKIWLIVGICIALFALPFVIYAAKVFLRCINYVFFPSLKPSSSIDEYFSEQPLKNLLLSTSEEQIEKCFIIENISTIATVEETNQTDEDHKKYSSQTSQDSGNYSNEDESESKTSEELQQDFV

[2] = target: T1, natural human type I interferon receptor (IFN-R) on the surface of human cells (human); assay: inhibition of binding of 125I-IFN alpha 2 (100 pM) to Ly28 cells, 4 C; competitor: labelled IFN alpha 2
[3] = target: T1, natural human type I interferon receptor (IFN-R) on the surface of human cells (human); assay: inhibition of binding of 125I-IFN alpha 2 (100 pM) to Daudi cells, 4 C; competitor: labelled IFN alpha 2
[4] = target: T1, natural human type I interferon receptor (IFN-R) on the surface of human cells (human); assay: inhibition of binding of 125I-IFN alpha 2 (100 pM) to K562 cells, 4 C; competitor: labelled IFN alpha 2

IC50 [1]: 11 µg/mL | IC50 [2]: 60 µg/mL | IC50 [3]: 0.4 µg/mL | IC50 [4]: 0.4 µg/mL
B1: monoclonal antibody 64G12 (antibody, from another filing, IgG1, V domains shown)
VH: QVTLKESGPGILKPSQTLSLTCSFSGFSLSTSGMGIGWIRQPSGKGLEWLAHIWWDDDKYYNPSLKSQLTISRDTSTNQVFLNITSVDTVDTATYYCGRNYYPYDAWFDYWGQGTLVTVS
VL: EIVLTQSPTTMAASPGEKITITCSASSSINSNHLHWYQQKPGFSPKVLIYRTSILASGVPTRFSGSGSGTSYSLTIGTMEAEDVATYYCQQGSNIPFTFGSGTELEIKR
